Measured values as given in article PMC6983367 (Proceedings of the National Academy of Sciences of the …, 2020).
One block for each binder: values may come before it.

Target: bovine mitochondrial F1-ATPase β subunit (His-tagged) (bovine, UniProt P00829 47-528)
Test: dilution and ultrafiltration

Sequence of bovine mitochondrial F1-ATPase β subunit (His-tagged) (P00829 47-528): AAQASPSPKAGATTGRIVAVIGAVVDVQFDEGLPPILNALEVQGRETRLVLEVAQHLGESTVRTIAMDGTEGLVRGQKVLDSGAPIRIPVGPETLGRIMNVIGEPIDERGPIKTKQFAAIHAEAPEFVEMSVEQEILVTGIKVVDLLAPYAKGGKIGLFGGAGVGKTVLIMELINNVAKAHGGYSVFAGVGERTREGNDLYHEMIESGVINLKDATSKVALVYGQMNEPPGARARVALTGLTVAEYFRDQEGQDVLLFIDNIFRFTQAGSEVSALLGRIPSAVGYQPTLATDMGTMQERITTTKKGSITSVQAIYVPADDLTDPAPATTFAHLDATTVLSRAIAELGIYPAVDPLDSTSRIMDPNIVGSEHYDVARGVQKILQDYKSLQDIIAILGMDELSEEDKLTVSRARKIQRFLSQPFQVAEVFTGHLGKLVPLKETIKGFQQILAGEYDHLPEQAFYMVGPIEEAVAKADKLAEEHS

binding result: binds
B1: bovine mitochondrial F1-ATPase γ subunit (γA99C, γS191C) (natural protein)
chain: ATLKDITRRLKSIKNIQKITKSMKMVAAAKYARAERELKPARVYGVGSLALYEKADIKTPEDKKKHLIIGVSSDRGLCGAIHSSVAKQMKSEAANLAACGKEVKIIGVGDKIRSILHRTHSDQFLVTFKEVGRRPPTFGDASVIALELLNSGYEFDEGSIIFNRFRSVISYKTEEKPIFSLDTISSAESMCIYDDIDADVLRNYQEYSLANIIYYSLKESTTSEQSARMTAMDNASKNASEMIDKLTLTFNRTRQAVITKELIEIISGAAALD

binding result: binds
B2: bovine mitochondrial F1-ATPase ε subunit (natural protein)
chain: MVAYWRQAGLSYIRYSQICAKAVRDALKTEFKANAMKTSGSTIKIVKVKKE
